Test results published in the DeepSol protein solubility set.

assay: soluble on expression in E. coli; label from the status in PepcDB or PDB records

Soluble on expression in E. coli, not soluble:
MTEQSAHEKYEFKKKLEGLRDKKGRSTELISLYIPPDKQIFDVTNQLKDEHGQAANIKSKLTRTNVQGAIESLLSRLRYLDKVPENGIVYFTGAVDIGANKTSMESEVIVPPDPITVYKYHCDSSFYLEPLEDMLKDKNTYGLLVLDRREATIGLLVGKRIQPFRNLTSTVPGKQRKGGQSAHRFQQLRLIAIHDFYKRIGDAASEVFMAVDHKDLKGVLIGGPSPTKEEFHAGEFLHHELMKKILGLFDTAYTDESGLSELVNAAGEKLQDLELMGQKNAVRDFFKELIADSGKVAYGESQVRANLEINSVDVLLLSEDLRAERVTTKCSVCGYENKWTRRWKPGEPAPAAGNCPKCGSSLEVTDVTDIVDEFSELADKSNAKVVFVSTDFDEGSQLMNAFGGIAAILRYNTGV, MHTVVMTKGVPDFREGQVSFDEDGHLERGKTPTVMNPNDKHALRAAFQTKVRNGGHVSLMSMGPPGYKEVLQEGMRDVYADDLYLLSDREMGAADTWATAMTVATGLQNLEEQPDLVFAGFKTADGETGHTGPQTCWCLDWPIITHVLSLDIDEDAGTVRAKRLVDGDISEIETVEAPMPCFIVADPEFEPTYRKASHRLKHKDLREETQERATEYEEYLTIWDHEGLNLDPDYIGLDGSPTIVAGVDPIPKAPSEREATVIEADEREALEPVLDELTPYAAGD, MPFRPQVIIGELMKTFGTNTNALPMSREETKTVEKFTRILKDAETDDLLIQSDDEEEVFGGIVDEEDWKPDDDDPSACVVPDKVNFSSGAAIDVAMVHSAVEFMTDVRTKKLRSFASMQRRYRFIKTQHDMQKLRVFAKNNEIQCSRVSQFSTLSGLLRTKVFEAIDDRISIDKFTLRRLAVQLNDEHVHIEGFQASDGWLKKWKKTNGLVSRHVTTFITRANYVNKELTEQAAKKFVEEVKAELATLDPDVVYNCDQSGFTKEQYCKRTLAPKGVKRVERLVQSKDALTHSYTILPMLSASGKLAPKLYVVLQEKGGKFPKKGHFSPDNLIIRANTSHIMNKQLMVDWVESAVCDPSMPTEVVLLLDAWPAWKNEGDVQAAALSGNTVHVRSIPPGATSFIQPCDLYFFCPLKNFVKKVNAYIIYSGITFKTSERDNLLRVISAVYRVFRAPIFQSCWKYGWIQGGYIDDQHVKVETPSKFCFKVSGYCSQKKTRDTMCQDTAFLLCPYCKKVLCFNHWVGCGFPAHKCKC, MSNALRGGPDFLLSVDSPVNIPSAFWSTLSPMTPRPRLLLTAALLALVPAAQAADLRLYPTLGEVTSQPLKVEGGAVTVPFPKADWAWVVPGSVRLLGVPVTRTRVTPGVNVLRAHEGEAVRVLRGGLNLKGTLADAEALLVQLDSGEYLTVRPDELAFSTRPPSSRDVADVKVTFETGGAGSANLLYQTRALSWKPRYELDASGDAATLRALAEIRNAGDQSFSGSTDLYAGDVRLVPENVPMPTLRWWENSPRPPAARAMPLSPRTALSRLSARLEHHHHHH, SGKLHSKPAAVCKRRESPEGDSFAVSAAWARKGIEEWIGRQRCPGGVSGPRQLRLAGTIGRSTRELVGDVLRDTLSEEEEDDFRLEVALPPEKTDGLGSGDEKKMERVSEPCPGSKKQLKFEELQCDVSMEEDSRQEWTFTLYDFDNNGKVTREDITSLLHTIYEVVDSSVNHSPTSSKMLRVKLTVAPDGSQSKRSVLVNQADLQSARPRAETKPTEDLRSWEKKQRAPLRFQGDSRLEQSGCYHHCVDENIERRNHYLDLAGIENYTSQFGPGSPSVAQKSELPPRTSNPTRSRSHEPEAIHIPHRKPQGVDPASFHFLDTPIAKVSELQQRLRGTQDGSKHFVRSPKAQGKSVGVGHVARGARNKPPLGPAIPAVSPSAHLAASPALLPSLAPLGHKKHKHRAKESQQGCRGLQAPLASGGPVLGREHLRELPALVVYESQAGQPVQRHEHHHHHEHHHHYHHFYQT, MLRPLSKTDCPMLQEINAKALGYLVSLDLLERQYERLIEDCHHYFLAYADKDTNQLLGYVHAERYETLYASDGLNLLGLAVLPAYQRRGIGSALLRALESQARQEGIAFIRLNSASHRKEAHAFYRNLDYADDKTQLRFIKNLQGDDNDF, MIVHELTDIGHLFTEQLQEGYYVIRETYQNVLVEPEDGDTVRQVDAGTEEVVTIVFDPGDEYSLICLDTYTFADGIPSLAELKETIAAEYDVFVNDRWAAPSL
